From patent US20260028403A1 (Zymeworks, published 2026)

Experiments:
[1] = target: T1, Recombinant human CD3 epsilon/delta heterodimer, his tag protein (Acro Biosystems) (human, UniProt P07766 23-126; P04234 22-105); experiment: SPR Biacore T200, CD3 e/d-his on CM5, construct injected, 1:1 model;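 also: measured at 25 °C in HEPES-buffered saline with EDTA and Tween 20 at pH 7.4, values are means of three independent runs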
T1 construct: bought

[2] = target: T2, Recombinant human/cynomolgus/rhesus macaque CD28 mouse IgG2a Fc fusion protein (Acro Biosystems) (human/cynomolgus/rhesus macaque, UniProt P10747 19-152); experiment: SPR Biacore T200, CD28-mIgG2a Fc on CM5, construct injected, 1:1 model;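 also: fc fusion captured by amine coupling, run at 25 °C in HEPES buffer pH 7.4, association 140-500 s then dissociation 600-1200 s, values averaged over three independent runs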
T2 construct: bought; also called huCD28

[3] = target: T3, Recombinant MSLN his tag protein (R&D systems) (UniProt Q13421 296-580, limits assumed); experiment: SPR Biacore T200, MSLN-his on CM5, construct flowed, 1:1 model
T3 construct: his tag; also called mesothelin

Binder	Kd [1] [nM]	koff [1] [s⁻¹]	kon [1] [M⁻¹ s⁻¹]	Kd [2] [nM]	koff [2] [s⁻¹]	kon [2] [M⁻¹ s⁻¹]	Kd [3] [nM]	koff [3] [s⁻¹]	kon [3] [M⁻¹ s⁻¹]
v34913 (trispecific antibody, human IgG1, kappa, L234A L235A, CD3 scFv on N-terminus of CD28 Fab; MSLN scFv-Fc; Het Fc, FcKO; also called CD3xCD28xMSLN trispecific) heavy 1: not shown heavy 2: EIVLTQSPATLSLSPGERVTMSCSASSSVSYMHWYQQKPGQAPRLWIYDTSKLASGVPARFSGSGSGTDYTLTISSVEPEDNAVYYCQQWSGHPLTFGQGTKVEIKGGGGSGGGGSGGGGSGGGGSQVQLVQSGAEVKKPGASVKISCKASGYSFTGYTMNWVRQAPGQGLEWIGLITPYSGASSYAQKFQGRATLTVDKSTSTAYMELSSLRSEDTAVYYCARGGYDGRGFDYWGQGTNVTVSSAAEPKSSDKTHTCPPCPAPEAAGGPSVFLFPPKPKDTLMISRTPEVTCVVVSVSHEDPEVKFNWYVDGVEVHNAKTKPREEQYNSTYRVVSVLTVLHQDWLNGKEYKCKVSNKALPAPIEKTISKAKGQPREPQVYVLPPSRDELTKNQVSLLCLVKGFYPSDIAVEWESNGQPENNYLTWPPVLDSDGSFFLYSKLTVDKSRWQQGNVFSCSVMHEALHNHYTQKSLSLSPG light: DIQMTQSPSSLSASVGDRVTITCRASESVEYYVTSLMQWYQQKPGKAPKLLIYAASNVDSGVPSRFSGSGSGTDFTLTISSLQPEDIATYYCQQSRKVPFTFGGGTKVEIKRTVAAPSVFIFPPSDEQLKSGTASVVCLLNNFYPREAKVQWKVDNALQSGNSQESVTEQDSKDSTYSLSSTLTLSKADYEKHKVYACEVTHQGLSSPVTKSFNRGEC	41.6	0.0112	270000	45.8	0.00216	47400	6.49	0.00212	340000
v34914 (trispecific antibody, human IgG1, lambda, L234A L235A, Het Fc, FcKO; also called CD28xCD3xMSLN trispecific) heavy 1: not shown heavy 2: EIVLTQSPATLSLSPGERVTMSCSASSSVSYMHWYQQKPGQAPRLWIYDTSKLASGVPARFSGSGSGTDYTLTISSVEPEDNAVYYCQQWSGHPLTFGQGTKVEIKGGGGSGGGGSGGGGSGGGGSQVQLVQSGAEVKKPGASVKISCKASGYSFTGYTMNWVRQAPGQGLEWIGLITPYSGASSYAQKFQGRATLTVDKSTSTAYMELSSLRSEDTAVYYCARGGYDGRGFDYWGQGTNVTVSSAAEPKSSDKTHTCPPCPAPEAAGGPSVFLFPPKPKDTLMISRTPEVTCVVVSVSHEDPEVKFNWYVDGVEVHNAKTKPREEQYNSTYRVVSVLTVLHQDWLNGKEYKCKVSNKALPAPIEKTISKAKGQPREPQVYVLPPSRDELTKNQVSLLCLVKGFYPSDIAVEWESNGQPENNYLTWPPVLDSDGSFFLYSKLTVDKSRWQQGNVFSCSVMHEALHNHYTQKSLSLSPG light: NFMLTQPHSVSESPGKTVTISCKRNTGNIGSNYVNWYQQHEGSSPTTIIYRNDKRPDGVSDRFSGSIDRSSKSASLTISNLKTEDEADYFCQSYSSGFIFGGGTKLTVLGQPKAAPSVTLFPPSSEELQANKATLVCLISDFYPGAVTVAWKADSSPVKAGVETTTPSKQSNNKYAASSYLSLTPEQWKSHRSYSCQVTHEGSTVEKTVAPTECS	81.1	0.0191	237000	122	0.00849	70200	5.39	0.00197	374000
v34917 (trispecific antibody, human IgG1, lambda, L234A L235A, Het Fc, FcKO; also called CD28xCD3xMSLN trispecific) heavy 1: EVQLVESGGGLVQPGGSLRLSCAASGVTFNYYGMSWIRQAPGKGLEWVASITSSGGRIYYPDSVKGRFTISRENTQKTLYLQMNSLRAEDTAVYYCTLDGRDGWVAYWGQGTLVTVSSASTKGPSVFPLAPSSKSTSGGTAALGCLVKDYFPEPVTVSWNSGALTSGVHTFPAVLQSSGLYSLSSVVTVPSSSLGTQTYICNVNHKPSNTKVDKKVEPKSCDKTHTCPPCPAPEAAGGPSVFLFPPKPKDTLMISRTPEVTCVVVSVSHEDPEVKFNWYVDGVEVHNAKTKPREEQYNSTYRVVSVLTVLHQDWLNGKEYKCKVSNKALPAPIEKTISKAKGQPREPQVYVYPPSRDELTKNQVSLTCLVKGFYPSDIAVEWESNGQPENNYKTTPPVLDSDGSFALVSKLTVDKSRWQQGNVFSCSVMHEALHNHYTQKSLSLSPGGGGGSGDIQMTQSPSSLSASVGDRVTITCRASESVEYYVTSLMQWYQQKPGKAPKLLIYAASNVDSGVPSRFSGSGSGTDFTLTISSLQPEDIATYYCQQSRKVPFTFGGGTKVEIKGGGGSGGGGSGGGGSGGGGSQVQLQESGPGLVKPSETLSLTCAVSGFSLTSYGVHWIRQPPGKGLEWLGVIWPGGGTNFNSALMSRLTISEDTSKNQVSLKLSSVTAADTAVYYCARDRAYGNYLYAMDYWGQGTLVTVSS heavy 2: EIVLTQSPATLSLSPGERVTMSCSASSSVSYMHWYQQKPGQAPRLWIYDTSKLASGVPARFSGSGSGTDYTLTISSVEPEDNAVYYCQQWSGHPLTFGQGTKVEIKGGGGSGGGGSGGGGSGGGGSQVQLVQSGAEVKKPGASVKISCKASGYSFTGYTMNWVRQAPGQGLEWIGLITPYSGASSYAQKFQGRATLTVDKSTSTAYMELSSLRSEDTAVYYCARGGYDGRGFDYWGQGTNVTVSSAAEPKSSDKTHTCPPCPAPEAAGGPSVFLFPPKPKDTLMISRTPEVTCVVVSVSHEDPEVKFNWYVDGVEVHNAKTKPREEQYNSTYRVVSVLTVLHQDWLNGKEYKCKVSNKALPAPIEKTISKAKGQPREPQVYVLPPSRDELTKNQVSLLCLVKGFYPSDIAVEWESNGQPENNYLTWPPVLDSDGSFFLYSKLTVDKSRWQQGNVFSCSVMHEALHNHYTQKSLSLSPG light: NFMLTQPHSVSESPGKTVTISCKRNTGNIGSNYVNWYQQHEGSSPTTIIYRNDKRPDGVSDRFSGSIDRSSKSASLTISNLKTEDEADYFCQSYSSGFIFGGGTKLTVLGQPKAAPSVTLFPPSSEELQANKATLVCLISDFYPGAVTVAWKADSSPVKAGVETTTPSKQSNNKYAASSYLSLTPEQWKSHRSYSCQVTHEGSTVEKTVAPTECS	40.8	0.0177	444000	373	0.00209	8240	4.96	0.00199	411000
v34916 (trispecific antibody, human IgG1, lambda, L234A L235A, CD28 scFv on C-terminus of the CD3 Fab light chain; Het Fc, FcKO; also called CD3xCD28xMSLN trispecific) heavy 1: not shown heavy 2: EIVLTQSPATLSLSPGERVTMSCSASSSVSYMHWYQQKPGQAPRLWIYDTSKLASGVPARFSGSGSGTDYTLTISSVEPEDNAVYYCQQWSGHPLTFGQGTKVEIKGGGGSGGGGSGGGGSGGGGSQVQLVQSGAEVKKPGASVKISCKASGYSFTGYTMNWVRQAPGQGLEWIGLITPYSGASSYAQKFQGRATLTVDKSTSTAYMELSSLRSEDTAVYYCARGGYDGRGFDYWGQGTNVTVSSAAEPKSSDKTHTCPPCPAPEAAGGPSVFLFPPKPKDTLMISRTPEVTCVVVSVSHEDPEVKFNWYVDGVEVHNAKTKPREEQYNSTYRVVSVLTVLHQDWLNGKEYKCKVSNKALPAPIEKTISKAKGQPREPQVYVLPPSRDELTKNQVSLLCLVKGFYPSDIAVEWESNGQPENNYLTWPPVLDSDGSFFLYSKLTVDKSRWQQGNVFSCSVMHEALHNHYTQKSLSLSPG light: NFMLTQPHSVSESPGKTVTISCKRNTGNIGSNYVNWYQQHEGSSPTTIIYRNDKRPDGVSDRFSGSIDRSSKSASLTISNLKTEDEADYFCQSYSSGFIFGGGTKLTVLGQPKAAPSVTLFPPSSEELQANKATLVCLISDFYPGAVTVAWKADSSPVKAGVETTTPSKQSNNKYAASSYLSLTPEQWKSHRSYSCQVTHEGSTVEKTVAPTECSGGGGSGDIQMTQSPSSLSASVGDRVTITCRASESVEYYVTSLMQWYQQKPGKAPKLLIYAASNVDSGVPSRFSGSGSGTDFTLTISSLQPEDIATYYCQQSRKVPFTFGGGTKVEIKGGGGSGGGGSGGGGSGGGGSQVQLQESGPGLVKPSETLSLTCAVSGFSLTSYGVHWIRQPPGKGLEWLGVIWPGGGTNFNSALMSRLTISEDTSKNQVSLKLSSVTAADTAVYYCARDRAYGNYLYAMDYWGQGTLVTVSS	37.2	0.0104	291000	56.5	0.000546	13000	4.78	0.00181	388000
v34918 (trispecific antibody, human IgG1, kappa, L234A L235A, Het Fc, FcKO; also called CD28xCD3xMSLN trispecific) heavy 1: QVQLQESGPGLVKPSETLSLTCAVSGFSLTSYGVHWIRQPPGKGLEWLGVIWPGGGTNFNSALMSRLTISEDTSKNQVSLKLSSVTAADTAVYYCARDRAYGNYLYAMDYWGQGTLVTVSSASTKGPSVFPLAPSSKSTSGGTAALGCLVKDYFPEPVTVSWNSGALTSGVHTFPAVLQSSGLYSLSSVVTVPSSSLGTQTYICNVNHKPSNTKVDKKVEPKSCDKTHTCPPCPAPEAAGGPSVFLFPPKPKDTLMISRTPEVTCVVVSVSHEDPEVKFNWYVDGVEVHNAKTKPREEQYNSTYRVVSVLTVLHQDWLNGKEYKCKVSNKALPAPIEKTISKAKGQPREPQVYVYPPSRDELTKNQVSLTCLVKGFYPSDIAVEWESNGQPENNYKTTPPVLDSDGSFALVSKLTVDKSRWQQGNVFSCSVMHEALHNHYTQKSLSLSPGGGGGSGNFMLTQPHSVSESPGKTVTISCKRNTGNIGSNYVNWYQQHEGSSPTTIIYRNDKRPDGVSDRFSGSIDRSSKSASLTISNLKTEDEADYFCQSYSSGFIFGGGTKLTVLGGGGSGGGGSGGGGSGGGGSEVQLVESGGGLVQPGGSLRLSCAASGVTFNYYGMSWIRQAPGKGLEWVASITSSGGRIYYPDSVKGRFTISRENTQKTLYLQMNSLRAEDTAVYYCTLDGRDGWVAYWGQGTLVTVSS heavy 2: EIVLTQSPATLSLSPGERVTMSCSASSSVSYMHWYQQKPGQAPRLWIYDTSKLASGVPARFSGSGSGTDYTLTISSVEPEDNAVYYCQQWSGHPLTFGQGTKVEIKGGGGSGGGGSGGGGSGGGGSQVQLVQSGAEVKKPGASVKISCKASGYSFTGYTMNWVRQAPGQGLEWIGLITPYSGASSYAQKFQGRATLTVDKSTSTAYMELSSLRSEDTAVYYCARGGYDGRGFDYWGQGTNVTVSSAAEPKSSDKTHTCPPCPAPEAAGGPSVFLFPPKPKDTLMISRTPEVTCVVVSVSHEDPEVKFNWYVDGVEVHNAKTKPREEQYNSTYRVVSVLTVLHQDWLNGKEYKCKVSNKALPAPIEKTISKAKGQPREPQVYVLPPSRDELTKNQVSLLCLVKGFYPSDIAVEWESNGQPENNYLTWPPVLDSDGSFFLYSKLTVDKSRWQQGNVFSCSVMHEALHNHYTQKSLSLSPG light: DIQMTQSPSSLSASVGDRVTITCRASESVEYYVTSLMQWYQQKPGKAPKLLIYAASNVDSGVPSRFSGSGSGTDFTLTISSLQPEDIATYYCQQSRKVPFTFGGGTKVEIKRTVAAPSVFIFPPSDEQLKSGTASVVCLLNNFYPREAKVQWKVDNALQSGNSQESVTEQDSKDSTYSLSSTLTLSKADYEKHKVYACEVTHQGLSSPVTKSFNRGEC	118	0.0135	118000	50	0.00259	52700	7.08	0.00187	294000
